Results on one substance are retold here after patent US20210132068A1.

For the test, the target named is CD20 on CD20+ Daudi lymphoma cells (UniProt P11836). The test is described as follows: flow cytometry on CD20+ Daudi lymphoma cells, 30 minutes at 4° C. In general terms: In flow cytometry, cells or beads pass a laser one at a time.
UniProt P11836, sequence (P11836 whole entry): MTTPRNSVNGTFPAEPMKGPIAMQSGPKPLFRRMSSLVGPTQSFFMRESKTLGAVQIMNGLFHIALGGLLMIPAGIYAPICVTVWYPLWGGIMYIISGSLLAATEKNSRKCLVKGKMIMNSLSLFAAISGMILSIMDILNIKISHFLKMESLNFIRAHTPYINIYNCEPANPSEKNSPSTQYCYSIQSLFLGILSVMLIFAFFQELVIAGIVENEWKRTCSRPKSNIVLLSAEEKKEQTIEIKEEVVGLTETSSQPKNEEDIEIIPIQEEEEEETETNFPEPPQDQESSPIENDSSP

Turning to FITC-rituximab (antibody), the % positive cells is 95%.
